Reference: US20160237119A1 (UNIVERSITY OF TOKYO, published 2016)
Like-named read-outs stand apart in the source and are kept apart here. Bridges are numbered along the chain shown (N, C = ends). Roman numbers before positions name the chains, in order. Primed or numbered codes have the meaning given here. Where no end group is shown, it is not given here. [ ]: non-standard residue; d: D form. NMeW = CN[C@@H](Cc1c[nH]c2ccccc12)C(=O)O; NMeR = CN[C@@H](CCCNC(=N)N)C(=O)O; NMeF = CN[C@@H](Cc1ccccc1)C(=O)O; NMeT = CN[C@H](C(=O)O)[C@@H](C)O; NMeE = CN[C@@H](CCC(=O)O)C(=O)O; NMeQ = CN[C@@H](CCC(N)=O)C(=O)O; NMeD = CN[C@@H](CC(=O)O)C(=O)O; NMeN = CN[C@@H](CC(N)=O)C(=O)O; NMeV = CN[C@H](C(=O)O)C(C)C; NMeC = CN[C@@H](CS)C(=O)O; BMH′ = not defined here

What was measured:
c-Met-Fc chimera protein [1] = target: T1, c-Met-Fc chimera protein (UniProt P08581 25-932, limits assumed); experiment: SPR (Biacore), c-Met-Fc captured by anti-IgG on CM5, single-cycle kinetics
T1 construct: Captured on the SPR chip by an anti-IgG antibody; not shown: Fc part
T1 sequence (P08581 25-932 limits assumed, change not shown): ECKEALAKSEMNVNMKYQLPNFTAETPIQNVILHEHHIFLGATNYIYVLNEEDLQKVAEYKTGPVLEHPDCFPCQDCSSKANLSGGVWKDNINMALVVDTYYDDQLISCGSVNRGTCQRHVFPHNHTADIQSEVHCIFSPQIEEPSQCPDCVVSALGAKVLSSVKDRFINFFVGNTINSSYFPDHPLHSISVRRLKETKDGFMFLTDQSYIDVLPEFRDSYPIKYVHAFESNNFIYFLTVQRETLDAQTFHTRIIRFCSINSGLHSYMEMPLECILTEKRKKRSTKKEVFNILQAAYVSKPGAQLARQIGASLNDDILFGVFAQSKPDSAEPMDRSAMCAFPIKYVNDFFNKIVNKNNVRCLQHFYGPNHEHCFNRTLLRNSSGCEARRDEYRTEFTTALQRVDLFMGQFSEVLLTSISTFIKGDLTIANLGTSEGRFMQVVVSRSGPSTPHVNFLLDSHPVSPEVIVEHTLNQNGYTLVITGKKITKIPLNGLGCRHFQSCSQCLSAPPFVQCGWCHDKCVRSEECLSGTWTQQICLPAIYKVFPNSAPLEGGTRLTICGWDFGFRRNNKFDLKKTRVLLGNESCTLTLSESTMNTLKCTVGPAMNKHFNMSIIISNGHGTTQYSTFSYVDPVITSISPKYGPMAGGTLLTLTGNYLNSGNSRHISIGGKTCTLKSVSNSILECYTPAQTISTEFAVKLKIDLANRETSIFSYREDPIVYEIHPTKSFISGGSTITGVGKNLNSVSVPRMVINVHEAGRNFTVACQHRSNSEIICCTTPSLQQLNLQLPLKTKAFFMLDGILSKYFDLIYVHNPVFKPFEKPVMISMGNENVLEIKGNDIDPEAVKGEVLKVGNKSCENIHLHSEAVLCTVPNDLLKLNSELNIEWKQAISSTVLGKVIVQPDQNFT
Method: (§1) As a sensor chip, Sensor Chip CM5 was used and an anti-IgG antibody was immobilized on a measurement lane and a control lane by using Human Antibody Capture Kit.
(§2) On the measurement lane was immobilized c-Met-Fc, while on the control lane was immobilized Fc protein.
(§3) As a running buffer, HBS-EP+ buffer containing 0.1% DMSO was used and a dissociation constant of the thioether macrocyclic peptide was calculated at 5 different concentrations by using the single-kinetics method.

c-Met-Fc chimera protein [2] = target: T1, c-Met-Fc chimera protein; experiment: as above; remark: listed apart in the source
Method: as §1, §2, §3

c-Met-Fc chimera protein [3] = target: T1, c-Met-Fc chimera protein; experiment: SPR presumed (Biacore as in 9-1; method not given), c-Met-Fc on chip
c-Met-Fc chimera protein [4] = target: T1, c-Met-Fc chimera protein; experiment: as above; remark: listed apart in the source

B1: D4-3 (peptide)
peptide: {CH2CO}-YRQFNRRTHEVWNLDCG
modifications: thioether N-16; not fully specified
notes: also called D4-3 peptide; D4-3 Monomer
c-Met-Fc chimera protein [1]
  Kd: 3.4 nM
  koff: 0.008 s⁻¹
  kon: 2.4e+06 M⁻¹ s⁻¹
c-Met-Fc chimera protein [2]
  Kd: 3.4 nM
  koff: 0.008 s⁻¹
  kon: 2.4e+06 M⁻¹ s⁻¹
c-Met-Fc chimera protein [3]
  Kd: 8.5 nM
  koff: 0.011 s⁻¹
  kon: 1.3e+06 M⁻¹ s⁻¹
c-Met-Fc chimera protein [4]
  Kd: 8.5 nM
  koff: 0.011 s⁻¹
  kon: 1.3e+06 M⁻¹ s⁻¹

B2: D5-4 dimeric peptide, linker BMH (peptide)
peptide 1: [dY]WYYAWDQTYKAFPCG
peptide 2: [dY]WYYAWDQTYKAFPCG
modifications: thioether I:N-I:15, II:N-II:15 via Ac; not fully specified (N-terminus, bridges); also: dimer: two copies joined by BMH through an added C-terminal Cys (handle not in letters)
notes: Two macrocyclic peptides joined through their C-terminal Cys by BMH; also called D5-4 BMH; not shown: C-terminal handle of each copy (spacer residue plus Cys)
c-Met-Fc chimera protein [2]
  Kd: 12 nM
  koff: 0.00055 s⁻¹
  kon: 46000 M⁻¹ s⁻¹

B3: D4-3 dimeric peptide, linker Bis-MAL-PEG3 (peptide)
peptide: {CH2CO}-YRQFNRRTHEVWNLDCGC(Bis‑MAL‑PEG3)
modifications: thioether N-16; not fully specified (residue 1); also: dimer: two copies joined by Bis-MAL-PEG3 at Cys18
notes: Two macrocyclic peptides joined through their C-terminal Cys by Bis-MAL-PEG3; also called D4-3 Bis-MAL-PEG3
c-Met-Fc chimera protein [2]
  Kd: 0.64 nM
  koff: 0.0007 s⁻¹
  kon: 1.1e+06 M⁻¹ s⁻¹

B4: D5-4 dimeric peptide, linker Bis-MAL-PEG11 (peptide)
peptide 1: [dY]WYYAWDQTYKAFPCG
peptide 2: [dY]WYYAWDQTYKAFPCG
modifications: thioether I:N-I:15, II:N-II:15 via Ac; not fully specified (N-terminus, bridges); also: dimer: two copies joined by Bis-MAL-PEG11 through an added C-terminal Cys (handle not in letters)
notes: Two macrocyclic peptides joined through their C-terminal Cys by Bis-MAL-PEG11; also called D5-4 Bis-MAL-PEG11; not shown: C-terminal handle of each copy (spacer residue plus Cys)
c-Met-Fc chimera protein [2]
  Kd: 2.1 nM
  koff: 0.011 s⁻¹
  kon: 5.3e+06 M⁻¹ s⁻¹

B5: D4-3-N7 (peptide)
peptide: {CH2CO}-YRQFNR[NMeR]THEVWNLDCG
modifications: thioether N-16
c-Met-Fc chimera protein [3]
  Kd: 130 nM

B6: N5, N-methylated D4-3 peptide (peptide)
peptide: {CH2CO}-YRQF[NMeN]RRTHEVWNLDCG
modifications: thioether N-16 (inferred)
c-Met-Fc chimera protein [3]
  Kd: 200 nM
  koff: 0.0039 s⁻¹
  kon: 19000 M⁻¹ s⁻¹

B7: D4-3scr (peptide)
peptide: {CH2CO}-YERVNHLFRNQTWDRCG
modifications: thioether N-16
notes: Negative control; also called negative control peptide
c-Met-Fc chimera protein [1]
  binding result: no binding

B8: D4-3 dimeric peptide, linker Bis-MAL-PEG11 (peptide)
peptide: {CH2CO}-YRQFNRRTHEVWNLDCGC(Bis‑MAL‑PEG11)
modifications: thioether N-16; not fully specified (residue 1); also: dimer: two copies joined by Bis-MAL-PEG11 at Cys18
notes: Two macrocyclic peptides joined through their C-terminal Cys by Bis-MAL-PEG11; also called D4-3 Bis-MAL-PEG11
c-Met-Fc chimera protein [2]
  Kd: 0.9 nM
  koff: 0.0011 s⁻¹
  kon: 1.2e+06 M⁻¹ s⁻¹

B9: N15, N-methylated D4-3 peptide (peptide)
peptide: {CH2CO}-YRQFNRRTHEVWNL[NMeD]CG
modifications: thioether N-16 (inferred)
c-Met-Fc chimera protein [3]
  Kd: 160 nM
  koff: 0.046 s⁻¹
  kon: 300000 M⁻¹ s⁻¹

B10: D5-4 (peptide)
peptide: {CH2CO}-[dY]WYYAWDQTYKAFPCG
modifications: thioether N-15
notes: also called D5-4 peptide; D5-4 Monomer
c-Met-Fc chimera protein [1]
  Kd: 4.6 nM
  koff: 0.021 s⁻¹
  kon: 4.5e+06 M⁻¹ s⁻¹
c-Met-Fc chimera protein [2]
  Kd: 4.6 nM
  koff: 0.021 s⁻¹
  kon: 4.5e+06 M⁻¹ s⁻¹

B11: N16, N-methylated D4-3 peptide (peptide)
peptide: {CH2CO}-YRQFNRRTHEVWNLD[NMeC]G
modifications: thioether N-16 (inferred)
c-Met-Fc chimera protein [3]
  Kd: 10 nM
  koff: 0.01 s⁻¹
  kon: 980000 M⁻¹ s⁻¹
c-Met-Fc chimera protein [4]
  Kd: 10 nM
  koff: 0.01 s⁻¹
  kon: 980000 M⁻¹ s⁻¹

B12: D4-3-N8 (peptide)
peptide: {CH2CO}-YRQFNRR[NMeT]HEVWNLDCG
modifications: thioether N-16
c-Met-Fc chimera protein [3]
  Kd: 220 nM
  koff: 0.006 s⁻¹
  kon: 27000 M⁻¹ s⁻¹

B13: N4, N-methylated D4-3 peptide (peptide)
peptide: {CH2CO}-YRQ[NMeF]NRRTHEVWNLDCG
modifications: thioether N-16 (inferred)
c-Met-Fc chimera protein [3]
  Kd: 79 nM
  koff: 0.0096 s⁻¹
  kon: 120000 M⁻¹ s⁻¹

B14: N13, N-methylated D4-3 peptide (peptide)
peptide: {CH2CO}-YRQFNRRTHEVW[NMeN]LDCG
modifications: thioether N-16
c-Met-Fc chimera protein [3]
  Kd: 33 nM
  koff: 0.0026 s⁻¹
  kon: 78000 M⁻¹ s⁻¹

B15: N14, N-methylated D4-3 peptide (peptide)
peptide: {CH2CO}-YRQFNRRTHEVWNLDCG
modifications: thioether N-16; not fully specified (residues 1, 14); also: one N-methylated residue, position given only by label N14
c-Met-Fc chimera protein [3]
  Kd: 290 nM
  koff: 0.0059 s⁻¹
  kon: 21000 M⁻¹ s⁻¹

B16: D4-3NMe (peptide)
peptide: {CH2CO}-YRQFN[NMeR]RTHEVWNLD[NMeC]G
modifications: thioether N-16
notes: also called NMe (N6 + N16); N-methylated D4-3
c-Met-Fc chimera protein [1]
  Kd: 5.2 nM
  koff: 0.0021 s⁻¹
  kon: 390000 M⁻¹ s⁻¹
c-Met-Fc chimera protein [2]
  Kd: 5.2 nM
  koff: 0.0021 s⁻¹
  kon: 390000 M⁻¹ s⁻¹
c-Met-Fc chimera protein [4]
  Kd: 5.2 nM
  koff: 0.0021 s⁻¹
  kon: 390000 M⁻¹ s⁻¹

B17: L5-2 (peptide)
peptide: {CH2CO}-YISWNEFNSPNWRFITCG
modifications: thioether N-17
notes: also called L5-2 peptide; L5-2 Monomer
c-Met-Fc chimera protein [1]
  Kd: 5.4 nM
  koff: 0.012 s⁻¹
  kon: 2.3e+06 M⁻¹ s⁻¹
c-Met-Fc chimera protein [2]
  Kd: 5.4 nM
  koff: 0.012 s⁻¹
  kon: 2.3e+06 M⁻¹ s⁻¹

B18: N2, N-methylated D4-3 peptide (peptide)
peptide: {CH2CO}-Y[NMeR]QFNRRTHEVWNLDCG
modifications: thioether N-16 (inferred)
c-Met-Fc chimera protein [3]
  Kd: 14 nM
  koff: 0.01 s⁻¹
  kon: 710000 M⁻¹ s⁻¹

B19: N10, N-methylated D4-3 peptide (peptide)
peptide: {CH2CO}-YRQFNRRTH[NMeE]VWNLDCG
modifications: thioether N-16
c-Met-Fc chimera protein [3]
  Kd: 300 nM
  koff: 0.0075 s⁻¹
  kon: 25000 M⁻¹ s⁻¹

B20: D4-3scr dimeric peptide, linker BMH (peptide)
peptide: {CH2CO}-YERVNHLFRNQTWDRCGC(BMH′)
modifications: thioether N-16; also: dimer: two copies joined by BMH at Cys18
notes: Negative control dimer; also called D4-3scr BMH
c-Met-Fc chimera protein [2]
  binding result: no binding

B21: N11, N-methylated D4-3 peptide (peptide)
peptide: {CH2CO}-YRQFNRRTHE[NMeV]WNLDCG
modifications: thioether N-16
c-Met-Fc chimera protein [3]
  Kd: 350 nM
  koff: 0.0051 s⁻¹
  kon: 15000 M⁻¹ s⁻¹

B22: D4-3NMe dimeric peptide, linker Bis-MAL-PEG11 (peptide)
peptide: {CH2CO}-YRQFN[NMeR]RTHEVWNLD[NMeC]GC(Bis‑MAL‑PEG11)
modifications: thioether N-16; also: dimer via Bis-MAL-PEG11
notes: also called D4-3NMe Bis-MAL-PEG11; dimerized N-methylated D4-3 peptide
c-Met-Fc chimera protein [2]
  Kd: 0.81 nM
  koff: 0.0004 s⁻¹
  kon: 490000 M⁻¹ s⁻¹

B23: D4-3-N6 (peptide)
peptide: {CH2CO}-YRQFN[NMeR]RTHEVWNLDCG
modifications: thioether N-16
c-Met-Fc chimera protein [3]
  Kd: 34 nM
  koff: 0.0041 s⁻¹
  kon: 120000 M⁻¹ s⁻¹
c-Met-Fc chimera protein [4]
  Kd: 34 nM
  koff: 0.0041 s⁻¹
  kon: 120000 M⁻¹ s⁻¹

B24: N3, N-methylated D4-3 peptide (peptide)
peptide: {CH2CO}-YR[NMeQ]FNRRTHEVWNLDCG
modifications: thioether N-16 (inferred)
c-Met-Fc chimera protein [3]
  Kd: 120 nM
  koff: 0.0031 s⁻¹
  kon: 27000 M⁻¹ s⁻¹

B25: D4-3 dimeric peptide, linker BMH (peptide)
peptide: {CH2CO}-YRQFNRRTHEVWNLDCGC(BMH′)
modifications: thioether N-16; not fully specified (residue 1); also: dimer: two copies joined by BMH at Cys18
notes: Two macrocyclic peptides joined through their C-terminal Cys by BMH; also called D4-3 BMH
c-Met-Fc chimera protein [2]
  Kd: 0.45 nM
  koff: 0.00091 s⁻¹
  kon: 2e+06 M⁻¹ s⁻¹

B26: N12, N-methylated D4-3 peptide (peptide)
peptide: {CH2CO}-YRQFNRRTHEV[NMeW]NLDCG
modifications: thioether N-16
c-Met-Fc chimera protein [3]
  Kd: 160 nM
  koff: 0.0086 s⁻¹
  kon: 55000 M⁻¹ s⁻¹

B27: D5-4 dimeric peptide, linker Bis-MAL-PEG3 (peptide)
peptide 1: [dY]WYYAWDQTYKAFPCG
peptide 2: [dY]WYYAWDQTYKAFPCG
modifications: thioether I:N-I:15, II:N-II:15 via Ac; not fully specified (N-terminus, bridges); also: dimer: two copies joined by Bis-MAL-PEG3 through an added C-terminal Cys (handle not in letters)
notes: Two macrocyclic peptides joined through their C-terminal Cys by Bis-MAL-PEG3; also called D5-4 Bis-MAL-PEG3; not shown: C-terminal handle of each copy (spacer residue plus Cys)
c-Met-Fc chimera protein [2]
  Kd: 4.7 nM
  koff: 0.00054 s⁻¹
  kon: 120000 M⁻¹ s⁻¹
